Assays:
[1] = biological target: glycoproteins from mouse endometrioid ovarian tumors nonadherent to Con A; assay: lectin blot of Con A-unbound mouse tissue glycoproteins with biotinylated E-PHA, densitometry (FIG. 11A lanes 3 and 4)
[2] = biological target: proteins of human ductal invasive breast carcinoma tissue (cases 10406, 10119, 11827, 2417, 2207); assay: L-PHA binding to breast tumor tissue proteins, case 2207; scale not defined
[3] = biological target: proteins of human ductal invasive breast carcinoma tissue (cases 10406, 10119, 11827, 2417, 2207); assay: L-PHA binding to breast tumor tissue proteins, case 2417; scale not defined
[4] = biological target: proteins of human ductal invasive breast carcinoma tissue (cases 10406, 10119, 11827, 2417, 2207); assay: L-PHA binding to breast tumor tissue proteins, case 10119; scale not defined
[5] = biological target: proteins of human ductal invasive breast carcinoma tissue (cases 10406, 10119, 11827, 2417, 2207); assay: L-PHA binding to breast tumor tissue proteins, case 10406; scale not defined
[6] = biological target: proteins of human ductal invasive breast carcinoma tissue (cases 10406, 10119, 11827, 2417, 2207); assay: L-PHA binding to breast tumor tissue proteins, case 11827; scale not defined
[7] = biological target: T1, Glucose-regulated protein 78 immunoprecipitated from human ovarian cancer tissue (human, UniProt P11021 19-654); assay: GRP78 immunoprecipitated from ovarian cancer tissue, SDS-PAGE, lectin blot
T1 construct: also called GRP78
T1 sequence (P11021 19-654 limits assumed): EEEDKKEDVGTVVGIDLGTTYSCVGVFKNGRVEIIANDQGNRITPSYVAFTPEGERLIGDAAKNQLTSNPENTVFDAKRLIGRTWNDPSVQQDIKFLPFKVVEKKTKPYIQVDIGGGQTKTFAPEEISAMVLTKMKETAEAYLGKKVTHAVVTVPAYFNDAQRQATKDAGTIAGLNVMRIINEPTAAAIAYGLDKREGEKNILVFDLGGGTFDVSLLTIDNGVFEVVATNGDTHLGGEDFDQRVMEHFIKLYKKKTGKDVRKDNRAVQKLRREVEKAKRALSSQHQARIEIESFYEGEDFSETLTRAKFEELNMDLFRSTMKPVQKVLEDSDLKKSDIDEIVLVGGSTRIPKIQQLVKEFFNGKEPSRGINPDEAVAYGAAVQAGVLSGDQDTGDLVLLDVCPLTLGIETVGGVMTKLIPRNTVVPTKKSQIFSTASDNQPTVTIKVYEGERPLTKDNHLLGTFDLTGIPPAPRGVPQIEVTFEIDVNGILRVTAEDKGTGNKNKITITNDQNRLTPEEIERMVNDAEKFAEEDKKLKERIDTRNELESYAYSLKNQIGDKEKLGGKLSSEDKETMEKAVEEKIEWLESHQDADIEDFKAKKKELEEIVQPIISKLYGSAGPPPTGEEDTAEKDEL

[8] = biological target: T2, Thrombospondin 1 from serum and tissue of ovarian cancer patients (human, UniProt P07996 19-1170, limits assumed, core fucosylated N-linked glycans (inferred from AAL reactivity)); assay: biotinylated AAL precipitation from serum, Western blot with anti-THBS1 (FIG. 19B panel 2)
T2 construct: also called THBS1; AAL-reactive THBS1
T2 sequence (P07996 19-1170 limits assumed): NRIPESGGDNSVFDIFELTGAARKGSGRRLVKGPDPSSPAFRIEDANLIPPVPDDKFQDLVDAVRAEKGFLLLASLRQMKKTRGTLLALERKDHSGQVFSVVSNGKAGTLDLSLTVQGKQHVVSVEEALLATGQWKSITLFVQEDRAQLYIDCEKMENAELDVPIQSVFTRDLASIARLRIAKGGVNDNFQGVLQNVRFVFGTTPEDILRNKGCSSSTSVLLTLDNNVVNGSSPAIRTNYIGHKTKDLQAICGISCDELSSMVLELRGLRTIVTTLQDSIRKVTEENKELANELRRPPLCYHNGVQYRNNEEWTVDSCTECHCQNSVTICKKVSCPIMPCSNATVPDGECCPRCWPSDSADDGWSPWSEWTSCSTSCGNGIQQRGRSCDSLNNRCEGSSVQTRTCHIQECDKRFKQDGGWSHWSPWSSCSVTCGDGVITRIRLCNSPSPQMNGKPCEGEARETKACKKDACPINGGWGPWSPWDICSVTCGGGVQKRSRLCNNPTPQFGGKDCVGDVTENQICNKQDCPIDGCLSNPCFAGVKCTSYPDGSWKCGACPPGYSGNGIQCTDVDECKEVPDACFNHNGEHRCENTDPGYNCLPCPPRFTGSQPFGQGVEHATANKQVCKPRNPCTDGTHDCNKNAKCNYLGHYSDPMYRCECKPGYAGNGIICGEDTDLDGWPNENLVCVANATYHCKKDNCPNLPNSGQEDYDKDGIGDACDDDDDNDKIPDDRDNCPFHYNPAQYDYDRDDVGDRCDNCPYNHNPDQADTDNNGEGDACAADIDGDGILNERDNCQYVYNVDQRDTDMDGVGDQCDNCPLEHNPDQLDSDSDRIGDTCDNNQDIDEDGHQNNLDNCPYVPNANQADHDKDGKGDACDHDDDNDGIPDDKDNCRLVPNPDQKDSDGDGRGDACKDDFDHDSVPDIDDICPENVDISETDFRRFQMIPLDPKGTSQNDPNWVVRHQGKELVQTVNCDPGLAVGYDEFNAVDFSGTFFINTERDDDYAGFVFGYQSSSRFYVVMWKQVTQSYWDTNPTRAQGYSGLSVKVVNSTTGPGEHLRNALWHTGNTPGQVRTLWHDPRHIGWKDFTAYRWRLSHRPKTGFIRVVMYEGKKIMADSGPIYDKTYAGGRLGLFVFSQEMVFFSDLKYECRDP

[9] = biological target: glycoproteins from human endometrioid ovarian tumors (cases 711, 741, 471) nonadherent to Con A; assay: lectin blot of Con A-unbound glycoproteins, human case 471, biotinylated AAL, densitometry (FIG. 11B lane 4)

Work on “Phaseolus vulgaris erythroagglutinin (erythroagglutinating phytohemagglutinin), biotinylated (from UniProt P05088 22-275)” yielded a level of E-PHA binding for tumor relative to normal (x relative to normal) [1] of 0.2.

“Phaseolus vulgaris leukoagglutinin (leukoagglutinating phytohemagglutinin), biotinylated (from UniProt P05087 21-272)” gave a L-PHA Level [2] of 9, a L-PHA Level [3] of 10 and a L-PHA Level [4] of 4. For the same molecule, the L-PHA Level [5] was 1 and the L-PHA Level [6] was 4.

B1: Phaseolus vulgaris erythroagglutinin (erythroagglutinating phytohemagglutinin), biotinylated (other, Phaseolus vulgaris (red kidney bean), UniProt P05088 22-275, looked up)
chain: ASQTSFSFQRFNETNLILQRDATVSSKGQLRLTNVNDNGEPTLSSLGRAFYSAPIQIWDNTTGAVAASPTSFTFNIDVPNNSGPADGLAFVLLPVGSQPKDKGGLLGLFNNYKYDSNAHTVAVEFDTLYNVHWDPKPRHIGIDVNSIKSIKTTTWDFVKGENAEVLITYDSSTKLLVASLVYPSLKTSFIVSDTVDLKSVLPEWVIVGFTATTGITKGNVETNDILSWSFASKLSDGTTSEALNLANFALNQIL
modifications: biotinylated
notes: also called E-PHA; EPHA
B1: no binding [7].

B2: Aleuria aurantia lectin, biotinylated (other, UniProt P18891 2-313, looked up)
chain: PTEFLYTSKIAAISWAATGGRQQRVYFQDLNGKIREAQRGGDNPWTGGSSQNVIGEAKLFSPLAAVTWKSAQGIQIRVYCVNKDNILSEFVYDGSKWITGQLGSVGVKVGSNSKLAALQWGGSESAPPNIRVYYQKSNGSGSSIHEYVWSGKWTAGASFGSTVPGTGIGATAIGPGRLRIYYQATDNKIREHCWDSNSWYVGGFSASASAGVSIAAISWGSTPNIRVYWQKGREELYEAAYGGSWNTPGQIKDASRPTPSLPDTFIAANSSGNIDISVFFQASGVSLQQWQWISGKGWSIGAVVPTGTPAGW
modifications: biotinylated
notes: Commercial fungal lectin; also called AAL
With B2 the binding result [7] was “no binding”, the binding result [8] was “binds” and the fold increase in the level of AAL binding relative to normal [9] was 7 fold.

From US20110033875A1 (UNIVERSITY OF GEORGIA RESEARCH FOUNDATION, published 2011)
